The chains are these.
B1: Subtilisin-chymotrypsin inhibitor-2A, P01053 (parent)
chain: MSSVEKKPEGVNTGAGDRHNLKTEWPELVGKSVEEAKKVILQDKPEAQIIVLPVGTIVTMEYRIDRVRLFVDKLDNIAQVPRVG

Variants of B1 are the subject of the data set. Conditions: Hordeum vulgare, structure 2CI2, whole UniProt chain shown; for Tm / unfolding enthalpy (calorimetric): Thermal, DSC; for denaturant m value / denaturant midpoint (higher = more stable) / unfolding free energy: pH 6.25, 25 °C, GdnHCl, Fluorescence, MES 50 mM.

This note sets out measurements from FireProtDB (doi:10.1093/protein/7.6.777).

Take E34A E35A: the denaturant m value was 2.11 kcal/mol/M, the “denaturant midpoint (higher = more stable)” value (shortened to “denaturant midpoint”) was 3.61 M and the unfolding free energy is 7.61 kcal/mol. Besides, where the note is “pH 3, glycine-HCl 10 mM”, the melting temperature (Tm) is 60.1 °C and the “unfolding enthalpy (calorimetric)” value was 58 kcal/mol.

Consider E35Q, for which the denaturant m value turned out to be 1.84 kcal/mol/M, the “denaturant midpoint” value came to 3.76 M and the unfolding free energy stood at 6.92 kcal/mol.

On to E35N, for which the denaturant m value was 2.18 kcal/mol/M, the “denaturant midpoint” value was determined as 3.45 M and the unfolding free energy is 7.53 kcal/mol.

For the variant E35D, the denaturant m value was found to be 2.2 kcal/mol/M, the “denaturant midpoint” value was 3.62 M and the unfolding free energy turned out to be 7.98 kcal/mol.

For S32G, the denaturant m value came out at 2.1 kcal/mol/M, the “denaturant midpoint” value turned out to be 3.59 M and the unfolding free energy is 7.52 kcal/mol. Further, for the setting “pH 3.5, formate 10 mM”, the Tm came to 69 °C and the “unfolding enthalpy (calorimetric)” value worked out at 64 kcal/mol.

With S32A, the denaturant m value amounted to 1.86 kcal/mol/M, the “denaturant midpoint” value worked out at 3.54 M and the unfolding free energy was 6.58 kcal/mol. Also, where the note is “pH 3, glycine-HCl 10 mM”, the Tm was found to be 58 °C and the “unfolding enthalpy (calorimetric)” value came out at 53 kcal/mol.

For the variant S32A E34A E35A, the denaturant m value stood at 2.18 kcal/mol/M, the “denaturant midpoint” value was 3.14 M and the unfolding free energy was found to be 6.86 kcal/mol. Besides, under “pH 3, glycine-HCl 10 mM”, the Tm was found to be 56.2 °C and the “unfolding enthalpy (calorimetric)” value stood at 54 kcal/mol.

Regarding S32G E34A E35A, the denaturant m value is 2.15 kcal/mol/M, the “denaturant midpoint” value is 3.16 M and the unfolding free energy was 6.79 kcal/mol. Moreover, for the setting “pH 3, glycine-HCl 10 mM”, the Tm was 56.5 °C and the “unfolding enthalpy (calorimetric)” value stood at 55 kcal/mol.

For E34D, the denaturant m value turned out to be 1.83 kcal/mol/M, the “denaturant midpoint” value was found to be 3.73 M and the unfolding free energy turned out to be 6.84 kcal/mol.

In the case of E34Q, the denaturant m value came out at 1.87 kcal/mol/M, the “denaturant midpoint” value came to 3.85 M and the unfolding free energy was determined as 7.03 kcal/mol.

Take E34N: the denaturant m value came out at 2.01 kcal/mol/M, the “denaturant midpoint” value came to 3.64 M and the unfolding free energy was 7.29 kcal/mol.
